This is an account of results in PMC314469, “Protein Interaction Networks by Proteome Peptide Scanning” (PLoS Biology, 2004).

What all share (test): SPOT array
For assay [1], the target named is T1, Boi1 SH3 (BOI1_YEAST), P38041.
T1 chain: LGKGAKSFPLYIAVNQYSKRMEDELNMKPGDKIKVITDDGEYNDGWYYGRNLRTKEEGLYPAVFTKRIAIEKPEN

For assay [2], the target named is Sho1 SH3 (SHO1_YEAST), P40073.
Assay [3] concerns the target T2, Boi2 SH3 (BOI2_YEAST), P39969.
T2 chain: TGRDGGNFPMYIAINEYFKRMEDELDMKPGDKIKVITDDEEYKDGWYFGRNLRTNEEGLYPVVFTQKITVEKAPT

For assay [4], the target named is T3, Rvs167 SH3 (RV167_YEAST), P39743.
T3 chain: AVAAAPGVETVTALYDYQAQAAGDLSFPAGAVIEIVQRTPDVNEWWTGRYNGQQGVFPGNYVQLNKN

The target of assay [5] is T4, Myo5 SH3 (MYO5_YEAST), Q04439.
T4 chain: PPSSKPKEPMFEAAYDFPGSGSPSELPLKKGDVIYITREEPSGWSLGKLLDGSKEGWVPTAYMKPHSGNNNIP

The target of assay [6] is T5, Yhr016c SH3 (YSC84_YEAST), P32793.
T5 chain: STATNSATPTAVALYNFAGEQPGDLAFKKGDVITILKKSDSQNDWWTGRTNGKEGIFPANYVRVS

Assay [7] addresses T6, Yfr024 SH3 (LSB3_YEAST), P43603.
T6 chain: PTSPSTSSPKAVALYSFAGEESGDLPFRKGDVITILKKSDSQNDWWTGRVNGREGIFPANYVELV

Sho1 SH3 (SHO1_YEAST), P40073, sequence (P40073 295-366): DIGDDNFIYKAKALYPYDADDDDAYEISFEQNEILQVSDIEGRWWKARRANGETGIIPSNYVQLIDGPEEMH

Regarding TTTYKSRPDRPKPV [YBR289W 757-770], the normalised SPOT signal, Boehringer light units (BLU); mean over the file's lines of this peptide in assay [1] was found to be 607; in assay [2], 44.7; in assay [3] it was 23.7; in assay [4] it was 97.7; in assay [5], 309; in assay [6], 68.7. Also, the normalised SPOT signal, Boehringer light units (BLU); mean over the file's lines of this peptide in assay [7] was determined as 266.
Take VAPNRIPPKVPVIN [YDR466W 429-442]: the normalised SPOT signal, Boehringer light units (BLU); mean over the file's lines of this peptide in assay [1] is 103; in assay [2], 19.2; in assay [3], 25; in assay [4], 55.9; in assay [5], 61100; in assay [6], 17.7. In assay [7], this molecule gave a normalised SPOT signal, Boehringer light units (BLU); mean over the file's lines of this peptide of 213.
With TTRKKKDPNAPKRA [YPR052C 11-24], the normalised SPOT signal, Boehringer light units (BLU); mean over the file's lines of this peptide worked out at 416 in assay [1]; 108 in assay [2]; 40.3 in assay [3]; 78.7 in assay [4]; 275 in assay [5]; 54 in assay [6]. The same molecule returned a normalised SPOT signal, Boehringer light units (BLU); mean over the file's lines of this peptide in assay [7] of 388.
With TTRRKKDPNAPKRR [YBR089C-A 17-30], the normalised SPOT signal, Boehringer light units (BLU); mean over the file's lines of this peptide in assay [1] was 424; in assay [2], 106; in assay [3], 13; in assay [4] it was 141; in assay [5], 999; in assay [6], 19.6. The molecule also came in with a normalised SPOT signal, Boehringer light units (BLU); mean over the file's lines of this peptide in assay [7] of 341.
For TYLTRPLPSTPNED [YOL070C 348-361], the normalised SPOT signal, Boehringer light units (BLU); mean over the file's lines of this peptide was 193 in assay [1]; 14200 in assay [2]; -0 in assay [3]; 11900 in assay [4]; 101 in assay [5]; 47100 in assay [6]. In assay [7], this molecule gave a normalised SPOT signal, Boehringer light units (BLU); mean over the file's lines of this peptide of 20100.
Take TTNSRLSPSSPSSS [YJR038C 2-15]: the normalised SPOT signal, Boehringer light units (BLU); mean over the file's lines of this peptide was 63 in assay [1]; 57.7 in assay [2]; 27.3 in assay [3]; 203 in assay [4]; 161 in assay [5]; 27.4 in assay [6]. In assay [7], the normalised SPOT signal, Boehringer light units (BLU); mean over the file's lines of this peptide stood at 91.6.
On to TTTIKNRPVPPPLP [YPL140C 79-92], for which the normalised SPOT signal, Boehringer light units (BLU); mean over the file's lines of this peptide in assay [1] stood at 86.4; in assay [2] it was 50.1; in assay [3], 0; in assay [4] it was 598; in assay [5], 1870; in assay [6], 32.8. In addition, in assay [7], the normalised SPOT signal, Boehringer light units (BLU); mean over the file's lines of this peptide is 290.
As for TYGFRVRPDFPVFG [YMR295C 130-143], the normalised SPOT signal, Boehringer light units (BLU); mean over the file's lines of this peptide in assay [1] came out at 12200; in assay [2], 71.3; in assay [3] it was 69.1; in assay [4], 361; in assay [5] it was 357; in assay [6] it was 134. The molecule also displayed a normalised SPOT signal, Boehringer light units (BLU); mean over the file's lines of this peptide in assay [7] of 892.
For TVSDRLIPTSPQKT [YGR146C 10-23], the normalised SPOT signal, Boehringer light units (BLU); mean over the file's lines of this peptide in assay [1] came to 50; in assay [2] it was 60.1; in assay [3] it was 31.8; in assay [4], 143; in assay [5] it was 128; in assay [6], 13. This molecule returned a normalised SPOT signal, Boehringer light units (BLU); mean over the file's lines of this peptide in assay [7] of 76.1.
As to TYIWRYLPAPPVSI [YOR116C 255-268], the normalised SPOT signal, Boehringer light units (BLU); mean over the file's lines of this peptide was found to be 64.5 in assay [1]; 657 in assay [2]; 23.6 in assay [3]; 356 in assay [4]; 444 in assay [5]; 173 in assay [6]. In assay [7], this molecule returned a normalised SPOT signal, Boehringer light units (BLU); mean over the file's lines of this peptide of 522.
For the molecule TVRTRRRPPPPPIP [YNL094W 462-475], the normalised SPOT signal, Boehringer light units (BLU); mean over the file's lines of this peptide in assay [1] worked out at 3490; in assay [2], 95.5; in assay [3], 12.6; in assay [4] it was 663; in assay [5], 46200; in assay [6] it was 91.7. In assay [7], this molecule registered a normalised SPOT signal, Boehringer light units (BLU); mean over the file's lines of this peptide of 891.
